Source: patent US20080085261A1, “Vaccine Adjuvant” (priority 2004, published 2008)

System: T regulatory phenotype cells
Design: species or system non-human primate
Conditions: in vivo

B1: daclizumab (antibody, chains of the INN, looked up, V domains shown)
VH: QVQLVQSGAEVKKPGSSVKVSCKASGYTFTSYRMHWVRQAPGQGLEWIGYINPSTGYTEYNQKFKDKATITADESTNTAYMELSSLRSEDTAVYYCARGGGVFDYWGQGTLVTVSS
VL: DIQMTQSPSTLSASVGDRVTITCSASSSISYMHWYQQKPGKAPKLLIYTTSNLASGVPARFSGSGSGTEFTLTISSLQPDDFATYYCHQRSTYPLTFGQGTKVEVK
B1 was tested, and the “time of maximum depletion in % and number of T regulatory phenotype cells” value was 2 weeks and the “time until which depletion of T regulatory phenotype cells lasted” value was 4 weeks.
